Measurements from the supplement of paper PMC12042874.
± gives the uncertainty stated by the source.

assay: amyloid nucleation score (Sup35N fusion, yeast selection) (log enrichment); library NNK3; higher = more nucleation; inactive = no reads after selection
Method in brief: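 After 24 hours of induction with 100 μM copper sulfate, psi-negative yeast expressing peptides of 20 random codons fused to Sup35N were grown for 7 days at 30°C on medium lacking adenine and uracil. Input and output plasmid inserts were sequenced with Illumina, and sequences with under 100 input reads were discarded. Scores for nucleation are the DiMSum log enrichment of output over input reads, centred on the mode score of non-aggregating sequences.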

| Substance | amyloid nucleation score |
| --- | --- |
| ISLDLG | inactive |
| ISLLTVHTVSVTF | inactive |
| ISLVGFHVKLVFL | 2.11 ± 0.09 |
| ISMFCMIGFEVW | inactive |
| ISNHLVVEYVRWIKSKLLGR | inactive |
| ISNSLSIEGLAY | inactive |
| ISPVRRWPQLLIYAMVTGGQ | inactive |
| ISQCVCSSYA | -0.265 ± 0.7 |
| ISQQTFNFALSMCTSPASRI | inactive |
| ISRSYCCVYT | inactive |
| ISSFCRGLVAFEPCWFGLEK | inactive |
| ISSPDSTTIRNDVSD | inactive |
| ISTARCNLLCRCWLRIYYND | inactive |
| ISTCMMFLF | inactive |
| ISTIRYNISYANAYYSSRQG | 0.699 ± 0.21 |
| ISTKGITTRSLLDFKILCIT | inactive |
| ISVTNGIMMVPLNGSNLFPS | -0.166 ± 0.62 |
| ITCCM | inactive |
| ITFVRGWVFDLQFNATE | 0.55 ± 0.37 |
| ITICVSIF | 1.75 ± 0.072 |
| ITLLYALVLFFTWNVSG | inactive |
| ITNYLWGGKGHRNKVLSNSC | inactive |
| ITSCRWVALKYLWSVFSLLI | inactive |

| Substance | amyloid nucleation score |
| --- | --- |
| ITSGFDVEKCGNVNLSWEVW | inactive |
| ITTVRAYEALTWNMFWVQCV | inactive |
| ITVCYMNKIWLK | inactive |
| IVCMLQFEVVVLHACRFESK | inactive |
| IVDGWR | inactive |
| IVEHIFDRGVSLEVMMMCYR | inactive |
| IVFMRLRMRVICPLCSVRLS | 0.385 ± 0.2 |
| IVGLDLCVHWQYLQVRLYII | inactive |
| IVGYERATFVLRSYRFEKVS | inactive |
| IVNLL | inactive |
| IVTLNYQLMYKMPKLLWSSN | inactive |
| IVWPIIRAHS | -0.313 ± 0.93 |
| IVYLRKPCYNW | inactive |
| IWIGFPFLSSSGGPMYPL | inactive |
| IWLTWTSEYCTIFGFVLPVV | inactive |
| IWNLWFRTFCT | 0.519 ± 0.25 |
| IWPVESWLWHVLWYLVFKI | 0.49 ± 0.17 |
| IWPWSFALIMS | inactive |
| IWTDDWFFVAVSDGKVSRLV | inactive |
| IYALDNHGTCGRGHAFYNMV | inactive |
| IYAQELLSVANLLRFL | inactive |
| IYAVSCVCVGIYGTIRLTSG | 0.017 ± 0.23 |
| IYCKVVALKRFHWMEAYA | inactive |

| Substance | amyloid nucleation score |
| --- | --- |
| IYEVVMVCISESLFLLMVKG | inactive |
| IYKSQMLEFVEVVRSYMPVQ | inactive |
| IYLLYNPCFRMRYLFCMLRG | inactive |
| IYLMVFNCMFEVTFRLSVES | inactive |
| IYMRRESGVLGEQ | inactive |
| IYPLAKFSLHLVYTDRVSIF | 0.352 ± 0.19 |
| IYPLV | inactive |
| IYSALYLYRTPKSVYQVTQS | -0.575 ± 1 |
| IYVQNSTANKR | inactive |
| IYVRLMSFH | 0.452 ± 0.15 |
| IYVVACGSR | inactive |
| IYYNHVVI | inactive |
| IYYPHTFIWDFVDEGVAPHY | 1.56 ± 0.12 |
| KAGVRKRKAER | inactive |
| KANDFTVFLRRVCLLNRVNA | inactive |
| KAQAFLWPVPDIQ | -0.571 ± 1.9 |
| KCRVG | inactive |
| KCSRDRWQIVKMFMRMTVAI | inactive |
| KDELCH | 1.81 ± 0.11 |
| KDIFYVAGDR | inactive |
| KDLDGVLFGNANWKIICEL | inactive |
